assay: soluble fraction after stress (log2 fold change); higher = more stays soluble; pooled small domains, quantitative proteomics; details: stress: pH 4
Summary of the method: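 Aggregation propensity is read out as the fold change in how much of each domain remains soluble after acid stress. The custom small-domain libraries were pooled, held at pH 4 and analysed with high-throughput quantitative proteomics. On the log2 scale used, higher values mean more of the domain stayed soluble.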

Sequence | soluble fraction (log2)
HMIALKNLREEKRMTQAELSKDLEISPSAIGMYEQGRRVPDVSTLKKISAYFNVSIDYLLGNSTSKDI | -0.0244
HMIALLRLGTAPDIKAQAPLATILARHNGEMSAKDLWQRFGGEIDTFYAQLKTEVAHGWILEPT | 0.0698
HMIAVLKQGVSKQQVENLITWFRSRGLDVHISEGKFQTIIGLIGDTSKVDIDLLNGLEIIESVKRI | -0.832
HMIAVSQEQIKQIIVDDPSFHDANGKFSQALLTQYLNQRRMSEDQFVEEIRDQFLFQNLQNLVQNG | -0.623
HMIDAAHLEKAILSLPEGARAVFVLIETEGFAHREVAELLGISEGTSKSQLNYAKKRLREILV | -0.0621
HMIDAKTTLQELTQKSGKKPEYRLIKIEGPDHLRRFTVEVFIDGQSMGTGTGHSKKEAEQNAANFALKNLQ | ≥ 0.43
HMIDEQDLKKYILISTSVEELTDYLGATDRMLYDYLYSLKHVGQYWQLNERFLLDLYKLPNLVIVDKEDLE | -0.351
HMIDFDEQGNLWVHEMGPRHGDELNLIEKARNYGYPTVSQGDHYSGVKISNHEDIPIFKSPEKAWVPAISP | -0.373
HMIDFDHADIERLWNSIIHYVPERQKLDFAIDFIKSLEDIGVEHDVLRGSAELDPKLEEAVNTVFE | -0.315
HMIDIIEYIISEESKGLRADQGIALQNPQYSRSLIQKWIKKGSVLVNNKIIRTKEILLEGDKISITPEENI | -2.29
HMIDKIRYPELIMKLAHQQGGTIKRRDVEQLLHLQTKQAYRELSKLVDAGELVSVGRGPGAHYEVS | -0.0885
HMIDQNEDLLSGYIDEVLSQNPDKVNEYLKGKSGLIGFFMGQIKQKSATALDAALLKSQLETALEKLRIK | -0.00948
HMIDQSVVVQYLSKLTNTPYLKTREITMGEPYMQFERGEIKFQEYVEDIRALLPGGDRIDADRLRDIWMNS | -0.721
HMIDRADLWEALRKLPEDTLKLFSLHFEKGMTHDEISKHTDIPVGTVKTKLRRGLIEARKLAREF | -0.394
HMIDTPQELARLLRLLDEQNFEAEILFHKLRPDLLHLWSKEHVTRIAEALDAFDYQMALTLLNASP | -2.15
HMIDVNLVQRGKTLHLRRRVPMRYSSVERREYVSISLKTDSEAEARRKAGAAWDQMIAAWEARLA | -0.12
HMIDYTDTSAVKDSAAVAGRVREMINEGVPIADVNAFIRSASENGLISDDSARRLRYMNDSR | ≥ 0.43
HMIEDMTINIEERLSLNGDIKKSEYILQYIKPDFIRKVILSPELNKGEIYIYDSKKKVMYLPLFDQVSEEI | -1.09
HMIEINNLEDLKLMKEFILKNGKYGFGVFVGGKYIGLSDIGSVNSFKDTLGLPVVSLGNDDFKRFTEAH | -0.653
HMIEQEQAFLEQVLKKYSQEELVLTVGSRTLVKYSAGQLERLLEHYPHVRLASSPVNGEAGFLLSRG | -0.784
HMIEQIELEARVPDELGGQRLDQVAAQMFDDFSRSRLTGWIRDGSLTADGQQLRPRDIVYGGTLLQLKAEQ | -0.151
HMIESFQNGLVEHDQFTRPNPWVTPNFSKIEVPSILLSGKHADIDLWKHQNSIENTKKNRPDLFKNYLKKN | -0.357
HMIEYILDYLANRGVYAASQGEQQQMEDGIARYLQENGLEDGNTGAYYQKYVSNHLQQISASDLKAYFLN | -1.49

Sequence | soluble fraction (log2)
HMIEYYDDEELDVFKGRQSDNYTNKEIEQFAEVLHTMRQDEVKGWNRSLILRSINLPDSLKDEVIMLI | -2.53
HMIFDPTTLPEKQLLVYGIISSHPGLNAKQISEMLTLKKSSIETAIKGLRKKEIIEYEGTTRNGG | -0.17
HMIFEEDILKEFRGSLIFITHDRRFLDNIATRIIELDRGKLLSFPGNFSAYKKAKNEQLANEAVENA | -1.17
HMIFEETVFKDIAFGPKNMGLSEAEIKRRVYETAENIGLSQELMERSPFELSGGQKRRVAIAGVMAMEP | -0.878
HMIFELDSDRASAGNTIGKLVSKWNNTEVASVQFVSGDDTSNKDNASIYLNTRSGGSGNLVRLRITK | 0.108
HMIFRPALITDLDAVERHYTELLTREAETGRSSTNWSLGVYPTRQTATAAQAAGTLWVLEREGQVVASVI | -0.552
HMIFTPNGDRVNDVFEIEMGVKLEFQIIILNQQNQTVFKSADPDFKWDGTMLNGEPAPSGTYLYYFSAKD | 0.22
HMIGERIKRARAAAGLSMQALGKQVGISANMVKKYEHDQSMPSSGVLLKLATALSVRTEYFFRPA | -0.0616
HMIGGASVFKQFLPLADKMLLTLIHSEFEGDTYFPVFSEKEWLLQESSSLLSATGYQLSFQTYIR | 0.013
HMIGGEDEILKVVLEVLEEKPEAIEQYKNGRTNIVDFLVGQVMKKTRGQANPATTREFMIREIEK | -0.999
HMIGKDLLGYEVFSESGDLVGILKDVMWLPHSDVYVITNGGKELLIPVIPEVVKGINHEQGVIVISPM | -1.04
HMIGPYAAAKLMTNKDFVKWLSGGVEKSVFNPNSFGQHIRRLVQISEVNPDIRDEINAVVQGLTQ | -0.00821
HMIGRIKGQLIEKKSDSVVIDVHGIGYVVYVTEKTARSLTLGDQSRDISLYSELLVKEDLLQLVGFI | -0.0095
HMIGRRLKVARASAGLSLRELAARMDGVVTPQAIGKYERNEDMPGSRALMALASALGVSEGYLLSD | -0.0156
HMIHDSAESVVFPFGKYKGYTLAHVIREHPHYTYWIRDNADFSPLWREAVSLALQNRDIGHLNLPHVK | -0.606
HMIHMNMGQKINQLRLQKGFTLEELGNLVGVGKSTVRKWENGMIANMKRDKILLVAEALDTSPAYLMGWD | -0.462
HMIIENIVVEIKGEVYNPGLYILEQGSRINDLIELSGGFTKDANGTDLNLAKVLSDGEVIIVSKKG | -1.35
HMIIIMKPNASEEAVRKVTHIIESKGLQVHLSKGSQVTIVGVVGDKTRLQGSNIEISEGVDKVVAVT | -0.0906
HMIILDASASRAIGNGTIEETKWDFGNGESSTNRGGPIVERQIYANQAAYILKLSMKTNDGQLFTKEIQLL | -0.0529
HMIINKFERRKEIQIQFNNQERIKFKDFFLNLSKENIIVSFLILLELVRESLIDFSGTNENDIEFFIK | -0.834
HMIITTPYKVTASAINIRSGRGTSYSIIGTVSKGQTVDVYNNSLSKGWVKVKFSGSVGYAYAKYLEK | -0.116
HMIIVMSANANAREISEVIARIRAMGYDVHLSHGKERTIIGVIGRGTPIDREQLSLMSGVQQVMPV | -0.109
HMIKIEDILNVESVELSDSEYKKFLNGILINVKNLENGWAKVYSGNEFKGFGIVDKNLLKRKIVID | -0.407

Sequence | soluble fraction (log2)
HMIKIEDYTNKDYNKVEASLEVKGLVVNIEYKAVDDKAKYKGKEDLIIDQSVKKDATLVKGDTIILYLPK | 0.0435
HMIKISDYLSEEDLNFIKEMEKIYPYFDFDSEGNLILTKSIDELKDKYGFDEAFVSRLDTVLNSR | -0.243
HMIKITLGWVISVRRHDLGYTQHKMARAVGISDLTVSRIESDDGITPDNNTLRKIAEYLKIDYNSLLTLK | -0.175
HMIKLIKKDTNISELKMSKMPWDVMLYGKPYQVVSIKGYVHTIGGRRGENDLWMYPRDESPTYENLIEFQ | 0.279
HMIKNKDRIQYTLAHRKAFRKIEKELLGYNTFRSLFHDLDKVFLYPFFDYKKVHNFHRNHAHH | 0.0879
HMIKRETNDNPVDPASLSLGDRVKILTLNQNGEIISLPDEKGLLQVQVGIMKIGVNVSDIMLI | -0.413
HMIKRITDEQHPVDVDRLLVVTFTNAAASEMRERIGDAIEAALEKDPYNQHLQRQLTLVHNAQITTIDS | 0.00503
HMIKSEERIQNIKEYILEFQFTYHRTPTMAQIAEAVGTVKSNVYKYLSEMEERGILTRNKREIEINDTIQ | -0.588
HMIKSMTGYGSAKGTVEGIEVSVELKSVNNKFLDTSIRLPRSFLFAEETIKQAVSSHISRGKVDVFVSVDS | -0.0706
HMIKYTIEELGELTGFTRRTIRYYVQEGLIDPPAGRGRGGFYYDSHVQQLLRIKSFQEKGIGITAMVSLM | -1.71
HMILEEIIGKNIARYREAAGLTQATLAEKIGISTAFVSRVERGQKKMKVETLYATAKVLNVSVDALLS | 0.0651
HMILKNVPSNLVNQRLDKVATVLFQTYSRTQIKKWILEGRLLVNGEISNPKDLVNENDEIEINPI | 0.3
HMILKQTHIVQELTGPIRLQEYGVGIFQQISTKSALKKALKKNQITVDGVVGSTATFIKGGEIIIYHVTE | -1.68
HMILNDRSELLDVVKRVIAANPASVADYRKGKKKVLGFLVGQAMKETKGQADPRILNELFLQELGEN | 0.0701
HMILNNAKINTELNSLAEFTQRSLDSNTSEIGFYDYKKISYIASFATMKTTNWNVIIRAPINEFMGTVN | 0.203
HMILQTLSERVTETLRDWILHGHFKPGDKIEEVPIAERMGVSRTPVRAAFATLTNEGLIDHQPNRGYQVRV | 0.201
HMILSTNFFRHIVPKEYQTSYGTMKKWLTDHNVIGTNSIPQGIGYRIPTQGLSSTFSFKVVDVLPDR | ≥ 0.43
HMIMDQTILRKQRELTDRLNRYRNEYYNHNKPSVSDEVYDRLFDELQSLEKETGVQMANSPTTTVG | 0.0972
HMIMGTITKRTNPSGAIVYRAQIRIKKAGYPDFSESRTFSKKAMAVEWLKLREAELEMHPELLFR | 0.0366
HMIMHLNQIIRNKRLAAGLTQEALAQKVGVTAPAVSKWEKGISYPDITLLPILARNLNTDVNTLLDFSA | 0.0644
HMIMNLNVLANNVRRLRTAQRLSQSALASKAGLSVPAIKNLENARNEPRVNTVQVIAHALEVRLQDLFAPT | 0.18
HMIMTEKEKKLLNRYIMHDTIHKLYHEQNKSMRWIADNLGINFRTVQKYLDMDSGEFQKYSESISNR | -0.141

Source: the domain aggregation screens of Martell et al. (2025)
